T1: CAPRIN-1 protein expressed on the cell surface of human cancer cells (human, UniProt Q14444 2-709)
T1 construct: whole, on cells; Target of all flow cytometry and ADCC assays; the cell line is named under assay; also called human CAPRIN-1; cytoplasmic- and proliferation-associated protein 1
T1 sequence (looked up): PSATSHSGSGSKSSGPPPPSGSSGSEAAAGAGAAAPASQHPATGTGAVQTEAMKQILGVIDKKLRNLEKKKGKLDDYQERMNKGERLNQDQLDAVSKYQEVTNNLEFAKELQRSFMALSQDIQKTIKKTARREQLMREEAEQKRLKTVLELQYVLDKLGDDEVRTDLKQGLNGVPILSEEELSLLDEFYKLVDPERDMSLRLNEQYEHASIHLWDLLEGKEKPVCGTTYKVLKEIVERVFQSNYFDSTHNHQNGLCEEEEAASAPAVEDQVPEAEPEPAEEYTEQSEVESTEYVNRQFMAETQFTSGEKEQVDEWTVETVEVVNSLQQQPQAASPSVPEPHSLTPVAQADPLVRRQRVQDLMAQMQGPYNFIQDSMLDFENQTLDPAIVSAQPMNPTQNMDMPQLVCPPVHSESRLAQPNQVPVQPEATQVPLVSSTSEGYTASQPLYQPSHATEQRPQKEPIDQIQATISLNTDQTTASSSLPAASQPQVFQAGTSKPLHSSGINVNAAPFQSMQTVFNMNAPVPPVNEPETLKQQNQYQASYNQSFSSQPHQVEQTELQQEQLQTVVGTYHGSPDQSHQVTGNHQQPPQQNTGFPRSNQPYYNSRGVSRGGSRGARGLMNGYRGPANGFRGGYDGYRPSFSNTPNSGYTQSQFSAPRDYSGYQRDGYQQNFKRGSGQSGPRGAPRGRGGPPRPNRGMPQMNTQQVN

T2: polypeptide set forth in SEQ ID NO: 431 (human)
T2 peptide: VERVFQSNYFDSTHNH

T3: peptide set forth in SEQ ID NO: 267 (human)
T3 peptide: QQPQAASPSVPE

T4: polypeptide set forth in SEQ ID NO: 266 (human)
T4 construct: Identified from ELISA on 93 synthetic peptides of 12 to 16 amino acids of human CAPRIN-1
T4 peptide: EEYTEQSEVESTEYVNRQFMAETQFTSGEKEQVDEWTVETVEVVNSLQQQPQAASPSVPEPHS

T5: polypeptide comprising the amino acid sequence set forth in SEQ ID NO: 269 (human)
T5 peptide: PPVNEPETLKQQNQYQAS


Assays:
[1] = target: T1, CAPRIN-1 protein expressed on the cell …; experiment: flow cytometry, TGBC14TKB cells, antibody 20 ug/mL, secondary antibody only as control
Experimental: (§1) A human gallbladder cancer cell line TGBC14TKB was investigated whether or not a CAPRIN-1 protein is expressed on the cell surface. 5×10⁵ cells of the gallbladder cancer cell line were centrifuged with a 1.5-mL micro centrifugation tube. The cells were subjected to reaction with each mouse anti-CAPRIN-1 antibody at a final concentration of 20 μg/mL, followed by being left to stand on ice for 1 hour. After washing with PBS, the cells were reacted with a 100-fold diluted Alexa488-labeled goat anti-mouse IgG antibody (manufactured by life technologies), followed by being left to stand on ice for […]. After washing with PBS, the fluorescence intensity was measured with FACS Calibur available from Becton, Dickinson and Company. As a negative control, only the secondary antibody was used in the reaction.
as §1, with “cell surface using mouse anti-CAPRIN-1 monoclonal antibodies #30 to #36.” for “cell surface.”, “of TGBC14TKB” for “of the gallbladder cancer cell line”, “each of” for “each”, “anti-CAPRIN-1 antibodies #30 to #36” for “anti-CAPRIN-1 antibody”, “Company. Separately, the cells were subjected to reaction with” for “Company. As a negative control,”, “antibody as a negative control.” for “antibody was used in the reaction.”

[2] = target: T2, polypeptide set forth in SEQ ID NO: 431; experiment: ELISA on immobilized synthetic CAPRIN-1 peptides, culture supernatant
[3] = target: T1, CAPRIN-1 protein expressed on the cell …; experiment: cell-based or functional assay
[4] = target: T3, peptide set forth in SEQ ID NO: 267; experiment: ELISA on immobilized synthetic CAPRIN-1 peptides, culture supernatant
[5] = target: T4, polypeptide set forth in SEQ ID NO: 266; experiment: as above
[6] = target: T1, CAPRIN-1 protein expressed on the cell …; experiment: flow cytometry, TGBC14TKB cells, culture supernatant, isotype control antibody as control
Experimental: Subsequently, a gallbladder cell line TGBC14TKB, which was confirmed to express a CAPRIN-1 gene, was investigated for whether or not a CAPRIN-1 protein is expressed on the surfaces of these cells. 1×10⁶ cells of TGBC14TKB were centrifuged with a 1.5-mL micro centrifugation tube. To the cells was added the culture supernatant (100 μL) containing any of anti-CAPRIN-1 mouse monoclonal antibodies #1 to #22 reacting to cancer cell surface produced in Example 4 and anti-CAPRIN-1 mouse-chicken chimeric antibodies #1 to #3 produced in the above (2), followed by being left to stand on ice for 1 hour. After washing with PBS, the cells were suspended in a FITC-labeled goat anti-mouse IgG antibody (manufactured by life technologies) diluted by 500-fold with PBS containing 0.1% FBS, followed by being left to stand on ice for 1 hour. After washing with PBS, the fluorescence intensity was measured with FACS Calibur available from Becton, Dickinson and Company. Separately, as a control, the same procedure as in above was performed using an iso-type control antibody, instead of the culture supernatants containing the anti-CAPRIN-1 mouse monoclonal antibodies #1 to #22 and the mouse-chicken chimeric antibodies #1 to #3. As a result, the fluorescence intensity in the cells to which any of the monoclonal antibodies #1 to #22 and the mouse-chicken chimeric antibodies #1 to #3 was added was 20% or more higher than that in the control in every case. Specifically, in the case of using mouse-chicken chimeric antibody #1, the fluorescence intensity was enhanced by 200% or more. […] The rate of increase in the fluorescence intensity is represented by the rate of increase in the mean fluorescence intensity (MFI value) in each cell and is calculated by the following calculation formula: […]

[7] = target: T5, polypeptide comprising the amino acid …; experiment: ELISA on immobilized synthetic CAPRIN-1 peptides, culture supernatant

increase in fluorescence intensity over control [1]	binding result [2]	binding result [4]	binding result [5]	rate of increase in mean fluorescence intensity over control [6]	binding result [7]	Binder	cytotoxicity (ADCC, 51Cr release) on TGBC14TKB, human NK cells [3]
≥ 35%	binds	–	–	–	–	mouse anti-CAPRIN-1 antibody #34 (antibody, V domains shown, mouse hybridoma antibody; also called mouse anti-CAPRIN-1 monoclonal antibody #34; mouse anti-CAPRN-1 antibody #34) VH: GAELVRPGTSVKVSCKASVYAFTNYLIEWVKQRPGQGLEWIGVINPKSGGTKYNEKFRGKATLTADKSSSTAYMQLSSLTSGDSAVYFCAITGTDYWGQGTTLTVSS VL: QGTRCDIQMTQTTSSLSASLGDRVTISCSASQGINNYLNWYQQKPDGTVKLLIYYTSSLRSGVPSRFSGSGSGTDYSLTISNLEPEDVATYYCQQYSKLPRTFGGGTKLEIKR	–
–	–	binds	binds	≥ 20%	–	mouse monoclonal antibody #4 (antibody, V domains shown, mouse hybridoma antibody; also called anti-CAPRIN-1 mouse monoclonal antibody #4; anti-CAPRIN-1 monoclonal antibody #4) VH: GAELVRSGASVKMSCKASGYSFTDYNMYWVKQTPGQGLEWIGYIYPGNGGTNYNQKFKGKATLTADTSSSTAYMQISSLTSEDSAVYFCARDYDDGGYAMDYWGQGTTVTVSS VL: DIQMTQSPASLSASVGETVTITCRASGNIHNYLTWYQQKQGKSPQLLVYNAKTLADGVPSRFSGSGSGTQYSLKINRLQPEDFGSYYCQHFWNIPWTFGGGTKLNSR	≥ 15%
–	–	binds	binds	–	–	human-chicken chimeric antibody #1 (antibody, human IgG1, kappa, V domains shown, also called human-chicken chimeric monoclonal antibody #1) VH: AVTLDESGGGLQMSRGGLSLVCKASGFDFSSYQMNWIRQAPGKGLEFVAAINKFGNSTGHGAAVKGRVTISRDNGQSTVRLQLNNLRAEDTAIYFCTKHAYGYCGSGTWCAAGEIDAWGHGTEVIVSS VL: QAASTQPSSVSANPGETVEITCSGGGSYSYGWFQQKSPGSAPVTVIYYNNKRPSDIPSRFSGSKSGSTGTLTITGVQADDEAVYYCGSGDSTDTAVFGAGTTLTVLG	20%
–	–	–	–	–	binds	human-chicken chimeric antibody #3 (antibody, human IgG1, kappa, V domains shown, Produced 'similarly' to human-chicken chimeric antibody #1 from chicken monoclonal antibody #3; also called human-chicken chimeric monoclonal antibody #3) VH: AVTLDESGGGLQTPGGALSLVCKASGFTFSGYDMLWVRQAPGKGLEWVAGIGSTGGGTDYGAAVKGRATISRDNGQSTVRLQLNNLRAEDTATYYCAKVAGGCNSGYCRDSPGSIDAWGHGTEVIVSA VL: AVTQQPASVSANPGETVKITCSGGGSRNYYGWYQQKSPGSVPVTVIYYDDQRPSNIPSRFSGALSGSTSTLTITGVQADDEAVYFCGSADSNTYEGSFGAGTTLTVLT	≥ 15%
